Paper PMC12421412

Molecular target: ectodomain of APP^695 (amyloid precursor protein)
Test: SPR; ectodomain of APP^695 coupled to the sensor chip surface; purified SORLA ectodomains as analyte; neutral pH; data also analysed with EVILFIT

Substance	SPR sensorgram peak (response units)
soluble mutant SORLA^N1358S ectodomain, hexa-His-tagged (from UniProt Q92673 82-2137) (domain or fragment)	1650 RU
soluble wildtype SORLA ectodomain (Sortilin-related receptor with A-type repeats), hexa-His-tagged (from UniProt Q92673 82-2137) (domain or fragment)	1750 RU
